B1: Repeat1-Fc (CSPG4 Repeat1, residues 410–551, fused to the N-terminus of human IgG1 Fc) (Fc fusion)
chain: ELPEPCVPEPGLPPVFANFTQLLTISPLVVAEGGTAWLEWRHVQPTLDLMEAELRKSQVLFSVTRGARHGELELDIPGAQARKMFTLLDVVNRKARFIHDGSEDTSDQLVLEVSVTARVPMPSCLRRGQTYLLPIQVNPVND
notes: also called CSPG4 decoy; source: FreeStyle HEK 293 cells, secreted, purified (Ni-NTA); not shown: Fc (human IgG1), C-terminal, kept
B2: His-tagged CSPG4 Repeat1 (residues 410–551), biotinylated (domain or fragment)
chain: B1 chain
modifications: biotinylated using EZ-Link NHS-PEG4-Biotin at pH 6.5
notes: also called His-tagged Repeat1; source: FreeStyle HEK 293 cells, secreted, purified (Ni-NTA); not shown: 8xHis, N-terminal, kept
B3: CSPG4^mini (human CSPG4 residues 30–764: two laminin G motifs and first two CSPG repeats) (domain or fragment)
chain: ASFFGENHLEVPVATALTDIDLQLQFSTSQPEALLLLAAGPADHLLLQLYSGRLQVRLVLGQEELRLQTPAETLLSDSIPHTVVLTVVEGWATLSVDGFLNASSAVPGAPLEVPYGLFVGGTGTLGLPYLRGTSRPLRGCLHAATLNGRSLLRPLTPDVHEGCAEEFSASDDVALGFSGPHSLAAFPAWGTQDEGTLEFTLTTQSRQAPLAFQAGGRRGDFIYVDIFEGHLRAVVEKGQGTVLLHNSVPVADGQPHEVSVHINAHRLEISVDQYPTHTSNRGVLSYLEPRGSLLLGGLDAEASRHLQEHRLGLTPEATNASLLGCMEDLSVNGQRRGLREALLTRNMAAGCRLEEEEYEDDAYGHYEAFSTLAPEAWPAMELPEPCVPEPGLPPVFANFTQLLTISPLVVAEGGTAWLEWRHVQPTLDLMEAELRKSQVLFSVTRGARHGELELDIPGAQARKMFTLLDVVNRKARFIHDGSEDTSDQLVLEVSVTARVPMPSCLRRGQTYLLPIQVNPVNDPPHIIFPHGSLMVILEHTQKPLGPEVFQAYDPDSACEGLTFQVLGTSSGLPVERRDQPGEPATEFSCRELEAGSLVYVHRGGPAQDLTFRVSDGLQASPPATLKVVAIRPAIQIHRSTGLRLAQGSAMPILPANLSVETNAVGQDVSVLFRVTGALQFGELQKQGAGGVEGAEWWATQAFHQRDVEQGRVRYLSTDPQHHAYDTVENLALEVQ
notes: source: FreeStyle HEK 293 cells, secreted, purified (Ni-NTA, Superdex-200)

Biological target: T1, TcdB1 holotoxin (VPI10463 strain), recombinant full-length, from Bacillus megaterium (Clostridioides difficile (VPI10463 …, UniProt P18177 1-2366))
T1 construct: source: Bacillus megaterium, purified as described previously
Assay: BLI
Conditions: both partners purified

| Binder | Kd [nM] | koff [s⁻¹] | kon [M⁻¹ s⁻¹] | binding result |
| --- | --- | --- | --- | --- |
| B1 | ~15.2 | ~0.000108 | ~7060 | – |
| B2 | – | – | – | binds |
| B3 | – | – | – | binds |

Reference: publication PMC8213806 (Nature Communications, 2021)
